According to patent publication US20170052184A1 (published 2017):
Changes are numbered by the printed parent chain.

T1: HCV Core1-169 (hepatitis C virus (HCV-1), UniProt P26664 1-169)
T1 sequence: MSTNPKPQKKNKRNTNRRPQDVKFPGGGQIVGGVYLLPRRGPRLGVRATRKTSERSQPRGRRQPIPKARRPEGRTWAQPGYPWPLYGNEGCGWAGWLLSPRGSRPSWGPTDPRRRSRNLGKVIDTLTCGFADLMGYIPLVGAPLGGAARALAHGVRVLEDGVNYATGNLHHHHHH

T2: HCV Core1-169 (HCV-1, UniProt P26664 1-169)
T2 construct: also called recombinant HCV core antigen
T2 sequence: T1 sequence

B1: HCV 208A-605 (antibody, V domains shown)
VH: EVQLQQSGPELEKPGASVKISCKTSGYTFTEYAIHWVKQSHGMSLEWIGGINPSNGNAIYNQIFKDKATLTVDRSSSTAYMGLRSLTFGDSGVYFCVRRQLDFFDYWGQGASLTVSS
VL: DIVVTQSPASLAVSLGQRATISCRASQSVSTSRYSYLHWYQQKPGQPPKLLIKYASNLESGVPARFSGSGSGTDFTLNIHPVGEEDTATYYCQHSWEFPFTFGSGTKLEIKR
B2: HCV 208A-830 (antibody, V domains shown)
VH: B1 VH with Q3R, S7P, L11V, M43E, N57D, A58P, S77N, F88V, F103Y, Y106F
VL: B1 VL with V4L, A25S, T87P
B3: HCV 208A-557 (antibody, V domains shown)
VH: QGQMQQSGAELVKPGASVKLSCKTSGFTFSSSYISWLKQKPGQSLEWIAWIYAGTGNTNYNQKFTDKAQLTVDTSSSTAYMQLSSLTTEDSAIYYCAISGTGFTYWGQGTLVTVSA
VL: B1 VL with V3A, V4L, L37M, K49E, E97D
B4: HCV 208A-352 (antibody, V domains shown)
VH: B3 VH with Y33F, L83F
VL: DVLMAQTPLSLPVTLGDQASISCRSSQSLVHSNGNTYLEWFLQKPGQSPKLLIYNVSNRFSGVPDRFSGSGSGTDFTLKISRVEAEDLGVYYCFQGSHVPLTFGSGTKLEIKR
B5: HCV 208B-1024 (antibody, V domains shown)
VH: EVQLVESGGDLVKPGGSLKLSCAASGFTFSNYGMSWVRQTPDKRLEWVATISSGGSYSYYPDSVKGRFTISRDNAKNILYLQMSSLKSEDTAMYYCASLYYGYGDYWGQGTAFTVSS
VL: B4 VL with A5T, T14S, L29I, F41Y, P45L, N55R, L101W, S105G
B6: HCV 208B-281 (antibody, V domains shown)
VH: B3 VH with M4L, K40R, N57G, L83F, T104I
VL: B4 VL with A5T, T14S, S32N, N55K, L101F
B7: HCV 208B-672 (antibody, V domains shown)
VH: EVKLVESGGSLVQPGGSLKLSCAASGFNFNTYAMSWVRQTPEKRLEWVAYISNGGGNTYYVDTVKGRFTISRDNAKNTLYLRMSSLKSEDTAMYYCARHGLYWGYSMDYWGQGTSVTVSS
VL: DIQMTQSPSSLSASLGERVSLTCRASQDIGGSINWLQQEPDGTIKRLIYATSSLDSGVPKRFSGSRSGSDYSLTISSLESEDFVDYYCLQYASSPPTFGGGTKLEIKR
B8: HCV 208B-189 (antibody, V domains shown)
VH: QVHLQQSGAELAKPGASVQMSCKASGYTFTANKMHWARQRPRQGLEWIGYIDPASGYTEYNQKIKDRATLTADKSSSTAYMQLSSLTSEDSAVYYCTNFAYWGQGTLVTVST
VL: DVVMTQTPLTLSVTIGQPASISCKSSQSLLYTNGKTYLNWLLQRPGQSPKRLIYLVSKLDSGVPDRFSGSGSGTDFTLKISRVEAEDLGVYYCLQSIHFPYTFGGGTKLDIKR
B9: HCV 208B-1096 (antibody, V domains shown)
VH: QVQLQQSGAGLAKPGASVKMSCKASGYTFTANKMHWAKQRPGQGLEWIGYIDPSSGYTEYNHKIQYKATLTADTSSSTAYMQLSTLTFEDSAVYYCTNFAYWGQGTLVTVSA
VL: DIVMTQTPLTLSVTIGQPASISCKSSQSLLFTNGKTYLNWFLQRPGQSPKRLIYLLSKLDSGVPDRFSGSGSGTDFTLKISRVEAEDLGVYYCLQSTYFPLTFGAGTKLELKR
B10: HCV 208B-547 (antibody, V domains shown)
VH: B8 VH with H3Q, Q19K, A31S, R38K, R42G, A54S, R67K, T112A
VL: EVVLTQSPAITAASLGQKVTITCRASSSVSYMHWYRQKSGTSPQPWIYEISTLASGVPTRFRASGSGTSYSLTISSMEAEDAAIYYCQQWNYPLTFGAGTKLELKR
B11: HCV 208B-395 (antibody, V domains shown)
VH: B9 VH with A37T, E59Q, Y66D, T85S
VL: DIVLTQSPATLSVTPGDRVSLSCRASQRIYNYLHWYQQKSHESPRLLIKYASQSISGIPSRFSGSGSGTDFILTINSVETEDFGMYFCQQSNSWPLTFGAGTKLELRR
B12: HCV 208B-589 (antibody, V domains shown)
VH: B9 VH with Y66D, T85S
VL: B9 VL
B13: HCV 208B-612 (antibody, V domains shown)
VH: EVQLQQSGPELVKPGASVKMSCKASGYRFTSYVMHWVRQKPGQGLEWIGYIDPHNDDTKYSEKFRGKATLTSDKSSTTAYMELSSLTSEDSAVYYCVRYSYDRDYSPMDYWGQGTSVTVSS
VL: QIVLTQSPTLMSASPGEKVTMTCSASSTVTYIYWYQQKPGSSPRLWMYDTFNLVSGVPARFSGSRSGTSYFLTISSMEGEDAATYYCQQYSDSPYTFGGGTKLEIKR
B14: HCV 208A-877 (antibody, V domains shown)
VH: QLQQSGPELVKPGASVKISCKTSGYTFTENAMHWVKQSRGKSLEWIGGVNPNNGDTVYTQKFKGKATLTVAKSSSTAYMELRTMTCEESTVYYCASREPDFFDYWGQGSSVTVSS
VL: QIVLTQSPAIMSVSPGEKVSMTCSASSSVTYMHWYQQKSGTSPKRWIYDTSELASGVPARFSGSGSGTTYSLTISSMEAEDAATYYCQQWSNKPLTFGAGTKLELKR
B15: HCV 208A-638 (antibody, V domains shown)
VH: QGQLQQPGAEFVKPGASLKLSCRASGYTFTSYWIHWVKQRPGQGLEWIGEVDPSDSYINQNEKFRGKATLTVDKSSSTAYMQLGSLTSEDSAVYYCARHYYGVLDSWGQGTALTVSS
VL: QIVLTQSPTIMSASLGERVTMTCTASSSVSSSYLHWFQQKPGSSPKLWIYSTSNLASGVPPRFSGSGSGTSYSLSISSVEAEDVATYYCLQFHRSPWTFGGGAKLEIKR
B16: HCV 208A-442 (antibody, V domains shown)
VH: DVQLQESGPGLVNPSQSLSLTCSVTGYSITSGYYWIWIRQFPGNKLEWMGYIKYDGGNNYSPSLKNRISIARDTSKNQFFLKLNSVTIEDTATYYCTRGSDSFDYWGQGTTLTVSS
VL: DIVLTQSPASLAVSLGQRAIISCKASQSVSFAGTNLMHWYQQKPGQQPKLLIYRASNLETGVPTRFSGSGSRTDFTLNIHPVEEDDAATYYCQQSREYYTFGGGTKLEIKR

Tests used:
HCV Core1-169 [1] = target: T1, HCV Core1-169; assay: SPR sandwich, capture mAb C11-3
[2] = target: T3, HCV Core 134-171-TT Peptide (hepatitis C virus (HCV-1 numbering) …); assay: SPR, captured mAb, peptide analyte
T3 construct: also called ALRZ-9 peptide

HCV Core1-169 [3] = target: T1, HCV Core1-169; assay: SPR sandwich, capture mAb C11-7
HCV Core1-169 [4] = target: T1, HCV Core1-169; assay: SPR sandwich, capture mAb C11-14
HCV Core1-169 [5] = target: T1, HCV Core1-169; assay: SPR sandwich, capture mAb C11-9
HCV Core1-169 [6] = target: T2, HCV Core1-169; assay: EIA, core1-169 coated on plate; note: test concentration or dose not given here
HCV Core1-169 [7] = target: T2, HCV Core1-169; assay: EIA, core1-169 captured by mAb 14-153-229; note: test concentration or dose not given here

Binder	expected percent binding (HCV Core1-169 [1]) [%]	Kd [2] [pM]	koff [2] [s⁻¹]	kon [2] [M⁻¹ s⁻¹]	expected percent binding (HCV Core1-169 [3]) [%]	expected percent binding (HCV Core1-169 [4]) [%]	expected percent binding (HCV Core1-169 [5]) [%]	OD (A492) (HCV Core1-169 [6]) [OD]	OD (A492) (HCV Core1-169 [7]) [OD]
B1	15.9	430	0.00037	870000	19.3	15.8	11.9	–	–
B2	11.9	160	0.00054	3.4e+06	14.7	11.7	7.9	–	–
B3	17.7	91	0.00021	2.4e+06	21.4	17.6	13.3	–	–
B4	≤ 1	520	5.4e-05	100000	≤ 1	≤ 1	≤ 1	–	–
B5	10.9	15000	0.014	1e+06	14.3	12.2	7.1	–	–
B6	≤ 1	96000	0.00025	2200	≤ 1	≤ 1	≤ 1	–	–
B7	2.6	160	0.00034	2.2e+06	2.8	2.7	≤ 1	–	–
B8	2.3	170	0.00015	880000	2.9	2.7	≤ 1	–	–
B9	15.1	460	0.0006	1.3e+06	16.9	16.3	11.4	–	–
B10	7.2	3200	0.0049	1.6e+06	8.3	8.2	4.9	–	–
B11	7.6	360	0.00047	1.3e+06	9.4	7.8	5.2	–	–
B12	9.4	630	0.00061	960000	11.7	9.9	6.7	–	–
B13	3.8	350	6.5e-05	180000	4.4	3.1	≤ 1	–	–
B14	9.4	2200	0.0024	1.1e+06	12.1	10.7	5.9	–	–
B15	14.1	200	0.00053	2.7e+06	16.9	13.3	9.2	–	–
B16	–	–	–	–	–	–	–	1.61	0.36
